In publication PMC3130887 (Nature structural & molecular biology, 2011):
One block for each molecule: values may come before it.

Assays:
ADDATRX = target: T1, ADDATRX (Homo sapiens, UniProt P46100, F284Y/K251R); assay type: binding; settings: wild type ADDATRX; Kd n.d. in Fig. 4b
T1 sequence (P46100 167-289 K251R/F284Y): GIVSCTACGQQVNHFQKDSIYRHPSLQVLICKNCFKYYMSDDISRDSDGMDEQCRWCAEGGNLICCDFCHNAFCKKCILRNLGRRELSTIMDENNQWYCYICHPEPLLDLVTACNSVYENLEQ

[1] = target: ADD_(ATRX) Y203A mutant (purified, for ITC) (human) (UniProt P46100); assay: ITC
[2] = target: ADD_(ATRX) (ATRX fragment 167–289) (human) (UniProt P46100); assay: ITC
[3] = target: unmodified H3 tail (as used in the SPR assay); assay: SPR

Molecule: H3_5–13K9me3: synthetic H3 peptide, residues 5–13, Lys9 trimethylated (QTARKSTGG; trimethyl-lysine at 9)
binding in ITC titration (ADDATRX): totally lost

Molecule: H3 peptide trimethylated at both Lys4 and Lys9
Kd [2]: 4.9 µM | dH [2]: -12 kcal/mol

Second part, the molecule after the results:

Kd [1]: 4.6 µM | dH [1]: -4.7 kcal/mol
Molecule: H3_(1–15)K9me3 peptide (from UniProt P68431 2-16)

Kd [3]: 3.2 µM
B1: ADD_(ATRX) (as used in the SPR assay) (domain or fragment)
chain: KRGEDGLHGIVSCTACGQQVNHFQKDSIYRHPSLQVLICKNCFKYYMSDDISRDSDGMDEQCRWCAEGGNLICCDFCHNAFCKKCILRNLGRKELSTIMDENNQWYCYICHPEPLLDLVTACNSVFENLEQLLQQNKK
